Percent of cells on which the receptor was expressed data for 1 substance are collected here from US7740853.

The target in this assay is mouse low affinity IgE receptor FcεRII (mouse) (UniProt P20693). Briefly: FACS analysis of 0.12A3 cells with the B3B4 antibody. A general note: In flow cytometry, cells or beads pass a laser one at a time.
Sequence of UniProt P20693 (P20693 whole entry): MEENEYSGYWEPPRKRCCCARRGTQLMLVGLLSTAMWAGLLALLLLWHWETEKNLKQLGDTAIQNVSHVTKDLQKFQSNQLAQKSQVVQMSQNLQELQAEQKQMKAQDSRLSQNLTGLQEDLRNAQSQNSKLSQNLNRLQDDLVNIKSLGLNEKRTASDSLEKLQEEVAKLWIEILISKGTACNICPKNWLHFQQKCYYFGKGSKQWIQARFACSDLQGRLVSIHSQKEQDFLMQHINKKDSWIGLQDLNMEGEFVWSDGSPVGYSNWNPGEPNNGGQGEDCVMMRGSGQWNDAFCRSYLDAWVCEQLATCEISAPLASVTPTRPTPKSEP

The substance “B3B4 antibody against the FcεRII receptor (Pharmigin)” returned a percent of cells on which the receptor was expressed of 54%.
